This assay concerns the target T1, Tim13p (recombinant, co-expressed with Tim8p in E. coli) (S. cerevisiae, UniProt P53299 1-105).
T1 sequence (looked up): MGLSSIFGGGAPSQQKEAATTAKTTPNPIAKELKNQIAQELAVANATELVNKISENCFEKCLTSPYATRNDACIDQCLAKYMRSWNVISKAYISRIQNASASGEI
Nature of the assay: quantitative amino acid analysis.

B1: Tim8p (recombinant, co-expressed with Tim13p in E. coli) (natural protein, S. cerevisiae, UniProt P57744 1-87, looked up)
chain: MSSLSTSDLASLDDTSKKEIATFLEGENSKQKVQMSIHQFTNICFKKCVESVNDSNLSSQEEQCLSNCVNRFLDTNIRIVNGLQNTR
Usually stoichiometry N stands for a count of units in the complex or per binding partner. As to B1, the “stoichiometry N” value turned out to be 1 molar ratio.

The record behind these values is article PMC2173223 (The Journal of Cell Biology, 2002).
